Results as given in US20080038248A1 (published 2008).

B1: NKG2D-Fc fusion protein (Fc fusion, human, UniProt P26718 73-216, looked up)
chain: IWSAVFLNSLFNQEVQIPLTESYCGPCPKNWICYKNNCYQFFDESKNWYESQASCMSQNASLLKVYSKEDQDLLKLVKSYHWMGLVHIPTNGSWQWEDGSILSPNLLTIIEMQKGDCALYASSFKGYIENCSTPNTYICMQRTV
notes: Produced in 293T cells, purified on Protein A. 'The fusion was C-terminal to human IgG1 hinge-CH2-CH3 domains'; also called recombinant soluble Fc fusion protein of NKG2D; not shown: human IgG1 hinge-CH2-CH3 domains, N-terminal to NKG2D (in pcDNA3.0)
B2: UL16 Fc fusion (Fc fusion)
chain: VDLGSKSSNSTCRLNVTELASIHPGETWTLHGMCISICYYENVTEDEIIGVAFTWQHNESVVDLWLYQNDTVIRNFSDITTNILQDGLKMRTVPVTKLYTSRMVTNLTVGRYDCLRCENGTTKIIERLYVRLGSLYPRPPGSGLAKHPSVSADEELSA
notes: not shown: human IgG1 CH2-CH3, C-terminal to UL16 (vector SignalpIgplus)
B3: soluble recombinant extracellular domain of RAET1G, 6-Histidine N-terminal fusion (ligand, human)
chain: HHHHHHGLADPHSLCYDITVIPKFRPGPRWCAVQGQVDEKTFLHYDCGSKTVTPVSPLGKKLNVTTAWKAQNPVLREVVDILTEQLLDIQLENYIPKEPLTLQARMSCEQKAEGHGSGSWQLSFDGQIFLLFDSENRMWTTVHPGARKMKEKWENDKDMTMSFHYISMGDCTGWLEDFLMGMDSTLEPSAGAPPTMSSGTAQPR
notes: extracellular domain; also called 6-His tagged recombinant RAET1G

Experiments:
[1] = biological target: T1, soluble recombinant extracellular domain of ULBP1, 6-Histidine N-terminal fusion (human, UniProt Q9BZM6 26-216, limits assumed); test: SPR (BIACore 2000), NKG2D-Fc captured on anti-human IgG, ULBP1 as analyte; joint global fit
T1 construct: extracellular domain
T1 sequence: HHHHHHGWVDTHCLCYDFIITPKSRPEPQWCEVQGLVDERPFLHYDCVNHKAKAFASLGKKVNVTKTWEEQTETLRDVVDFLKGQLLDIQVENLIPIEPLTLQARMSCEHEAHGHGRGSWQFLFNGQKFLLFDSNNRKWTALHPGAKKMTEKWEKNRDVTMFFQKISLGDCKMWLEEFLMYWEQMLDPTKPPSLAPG
Procedure: (§1) SPR was carried out on a BIACore2000 machine. Running buffer, sensor chips and surface coupling reagents were from BIACore. Anti Human IgG (Dako) was coupled to a CM5 surface using NHS/EDC chemistry. […] Surface regeneration was using 5 μl of 10 mM HCl. […] Kinetic analysis was performed using BIAEvaluation 3.1 software.

[2] = biological target: T2, soluble recombinant extracellular domain of ULBP2, 6-Histidine N-terminal fusion (human, UniProt Q9BZM5 26-217, limits assumed); test: SPR (BIACore 2000), NKG2D-Fc captured on anti-human IgG, ULBP2 as analyte; joint global fit
T2 construct: extracellular domain
T2 sequence: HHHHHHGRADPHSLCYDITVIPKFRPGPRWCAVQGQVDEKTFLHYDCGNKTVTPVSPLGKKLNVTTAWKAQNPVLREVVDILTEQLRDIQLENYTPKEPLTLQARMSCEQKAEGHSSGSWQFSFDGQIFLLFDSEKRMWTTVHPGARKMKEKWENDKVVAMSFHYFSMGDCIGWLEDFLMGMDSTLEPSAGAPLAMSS
Procedure: as §1

[3] = biological target: T3, soluble recombinant extracellular domain of ULBP3, 6-Histidine N-terminal fusion (human, UniProt Q9BZM4 30-217, limits assumed); test: SPR (BIACore 2000), NKG2D-Fc captured on anti-human IgG, ULBP3 as analyte; joint global fit
T3 construct: extracellular domain
T3 sequence: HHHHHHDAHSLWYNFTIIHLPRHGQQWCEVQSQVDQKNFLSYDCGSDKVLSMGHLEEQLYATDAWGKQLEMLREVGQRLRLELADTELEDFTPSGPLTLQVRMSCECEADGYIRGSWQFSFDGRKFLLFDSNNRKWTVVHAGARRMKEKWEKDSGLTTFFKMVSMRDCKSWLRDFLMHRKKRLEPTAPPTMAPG
Procedure: as §1

[4] = biological target: T4, soluble recombinant extracellular domain of RAET1E, 6-Histidine N-terminal fusion (human, UniProt Q8TD07 31-225); test: SPR (BIACore 2000), NKG2D-Fc captured on anti-human IgG, RAET1E as analyte; joint global fit
T4 construct: extracellular domain
T4 sequence: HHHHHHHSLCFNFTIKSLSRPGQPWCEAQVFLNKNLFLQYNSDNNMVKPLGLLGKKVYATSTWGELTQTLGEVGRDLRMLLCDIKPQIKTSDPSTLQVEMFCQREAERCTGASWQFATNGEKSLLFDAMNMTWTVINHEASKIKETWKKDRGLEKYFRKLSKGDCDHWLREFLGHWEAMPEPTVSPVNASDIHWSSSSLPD
Procedure: as §1

[5] = biological target: B3; test: SPR (BIACore 2000), NKG2D-Fc captured on anti-human IgG, RAET1G as analyte; joint global fit
Procedure: as §1

[6] = biological target: T1, soluble recombinant extracellular …; test: SPR (BIACore 2000), NKG2D-Fc captured on anti-human IgG, ULBP1 as analyte; separate off-rate fit
Procedure: as §1

[7] = biological target: T2, soluble recombinant extracellular …; test: SPR (BIACore 2000), NKG2D-Fc captured on anti-human IgG, ULBP2 as analyte; separate off-rate fit
Procedure: as §1

[8] = biological target: T3, soluble recombinant extracellular …; test: SPR (BIACore 2000), NKG2D-Fc captured on anti-human IgG, ULBP3 as analyte; separate off-rate fit
Procedure: as §1

[9] = biological target: T4, soluble recombinant extracellular …; test: SPR (BIACore 2000), NKG2D-Fc captured on anti-human IgG, RAET1E as analyte; separate off-rate fit
Procedure: as §1

[10] = biological target: B3; test: SPR (BIACore 2000), NKG2D-Fc captured on anti-human IgG, RAET1G as analyte; separate off-rate fit
Procedure: as §1

[11] = biological target: T1, soluble recombinant extracellular …; test: SPR (BIACore 2000), NKG2D-Fc captured on anti-human IgG, ULBP1 as analyte; derived from joint fit
Procedure: as §1

[12] = biological target: T2, soluble recombinant extracellular …; test: SPR (BIACore 2000), NKG2D-Fc captured on anti-human IgG, ULBP2 as analyte; derived from joint fit
Procedure: as §1

[13] = biological target: T3, soluble recombinant extracellular …; test: SPR (BIACore 2000), NKG2D-Fc captured on anti-human IgG, ULBP3 as analyte; derived from joint fit
Procedure: as §1

[14] = biological target: T4, soluble recombinant extracellular …; test: SPR (BIACore 2000), NKG2D-Fc captured on anti-human IgG, RAET1E as analyte; derived from joint fit
Procedure: as §1

[15] = biological target: B3; test: SPR (BIACore 2000), NKG2D-Fc captured on anti-human IgG, RAET1G as analyte; derived from joint fit
Procedure: as §1

[16] = biological target: T1, soluble recombinant extracellular …; test: SPR (BIACore 2000), UL16-Fc captured on anti-human IgG, ULBP1 as analyte; joint global fit
[17] = biological target: T4, soluble recombinant extracellular …; test: SPR (BIACore 2000), UL16-Fc captured on anti-human IgG, RAET1E as analyte; joint global fit
[18] = biological target: B3; test: SPR (BIACore 2000), UL16-Fc captured on anti-human IgG, RAET1G as analyte; joint global fit
[19] = biological target: T1, soluble recombinant extracellular …; test: SPR (BIACore 2000), UL16-Fc captured on anti-human IgG, ULBP1 as analyte; derived from joint fit
[20] = biological target: T4, soluble recombinant extracellular …; test: SPR (BIACore 2000), UL16-Fc captured on anti-human IgG, RAET1E as analyte; derived from joint fit
[21] = biological target: B3; test: SPR (BIACore 2000), UL16-Fc captured on anti-human IgG, RAET1G as analyte; derived from joint fit
NKG2D-Fc fusion protein = biological target: B1; test: SPR (BIACore 2000); RAET1G against ULBP2 on NKG2D-Fc
Procedure: as §1

UL16 Fc fusion = biological target: B2; test: SPR (BIACore 2000); kon on UL16-Fc against kon on NKG2D-Fc

Binder: B1
- koff [1]: 0.0073 s⁻¹
- kon [1]: 4360 M⁻¹ s⁻¹
- koff [2]: 0.063 s⁻¹
- koff [3]: 0.00537 s⁻¹
- kon [3]: 2350 M⁻¹ s⁻¹
- koff [4]: 0.00292 s⁻¹
- kon [4]: 74900 M⁻¹ s⁻¹
- koff [5]: 0.00374 s⁻¹
- kon [5]: 10500 M⁻¹ s⁻¹
- koff [6]: 0.0069 s⁻¹
- koff [7]: 0.0336 s⁻¹
- koff [8]: 0.005 s⁻¹
- koff [9]: 0.005 s⁻¹
- koff [10]: 0.003 s⁻¹
- Kd [11]: 1680 nM
- Kd [12]: 7160 nM
- Kd [13]: 2290 nM
- Kd [14]: 39 nM
- Kd [15]: 356 nM

Binder: B2
- koff [16]: 0.000597 s⁻¹
- kon [16]: 2460 M⁻¹ s⁻¹
- koff [17]: 0.00595 s⁻¹
- kon [17]: 11800 M⁻¹ s⁻¹
- koff [18]: 0.00871 s⁻¹
- kon [18]: 115000 M⁻¹ s⁻¹
- Kd [19]: 243 nM
- Kd [20]: 504 nM
- Kd [21]: 75.6 nM

Binder: B3
- fold difference in affinity against ULBP2 (NKG2D-Fc fusion protein): 20 fold
- fold faster association rate for UL16 than for NKG2D (UL16 Fc fusion): 10 fold
